Starred links: 1 amine or outer side, 2 acyl side, 3 side chain; linkers in the order of their positions; H or OH if unused. Non-standard residues stand in square brackets, D forms with d. Groups on a side chain read outwards from the residue. Primed or numbered codes have the meaning given here. No end group written: not given here. *: point of attachment. γGlu = O=C(O)[C@H](CCC(=O)[*:2])N[*:1]; Palmitoyl = CCCCCCCCCCCCCCCC(=O)*; αMeF = C[C@](N)(Cc1ccccc1)C(=O)O; αMeK = C[C@](N)(CCCCN)C(=O)O; Lauroyl = CCCCCCCCCCCC(=O)*; αMeS = C[C@](N)(CO)C(=O)O; PEG2′ = not defined here; Aib = CC(C)(N)C(=O)O
B1: SEQ ID NO 14 (peptide)
peptide: H[Aib]QGS[αMeF]TSD[αMeF]SK[αMeF]LDSRRAQD[αMeF]VQ[αMeF]LMNT-NH2
modifications: N-terminus assumed
SMILES: CSCC[C@H](NC(=O)[C@H](CC(C)C)NC(=O)[C@](C)(Cc1ccccc1)NC(=O)[C@H](CCC(N)=O)NC(=O)[C@@H](NC(=O)[C@](C)(Cc1ccccc1)NC(=O)[C@H](CC(=O)O)NC(=O)[C@H](CCC(N)=O)NC(=O)[C@H](C)NC(=O)[C@H](CCCNC(=N)N)NC(=O)[C@H](CCCNC(=N)N)NC(=O)[C@H](CO)NC(=O)[C@H](CC(=O)O)NC(=O)[C@H](CC(C)C)NC(=O)[C@](C)(Cc1ccccc1)NC(=O)[C@H](CCCCN)NC(=O)[C@H](CO)NC(=O)[C@](C)(Cc1ccccc1)NC(=O)[C@H](CC(=O)O)NC(=O)[C@H](CO)NC(=O)[C@@H](NC(=O)[C@](C)(Cc1ccccc1)NC(=O)[C@H](CO)NC(=O)CNC(=O)[C@H](CCC(N)=O)NC(=O)C(C)(C)NC(=O)[C@@H](N)Cc1c[nH]cn1)[C@@H](C)O)C(C)C)C(=O)N[C@@H](CC(N)=O)C(=O)N[C@H](C(N)=O)[C@@H](C)O
B2: SEQ ID NO 16 (peptide)
peptide: H[Aib]EGS[αMeF]T[αMeS]DVSS[αMeF]LEGEAA[αMeK]E[αMeF]IA[αMeF]VV[αMeK]GG-NH2
modifications: N-terminus assumed
SMILES: CC[C@H](C)[C@H](NC(=O)[C@](C)(Cc1ccccc1)NC(=O)[C@H](CCC(=O)O)NC(=O)[C@](C)(CCCCN)NC(=O)[C@H](C)NC(=O)[C@H](C)NC(=O)[C@H](CCC(=O)O)NC(=O)CNC(=O)[C@H](CCC(=O)O)NC(=O)[C@H](CC(C)C)NC(=O)[C@](C)(Cc1ccccc1)NC(=O)[C@H](CO)NC(=O)[C@H](CO)NC(=O)[C@@H](NC(=O)[C@H](CC(=O)O)NC(=O)[C@](C)(CO)NC(=O)[C@@H](NC(=O)[C@](C)(Cc1ccccc1)NC(=O)[C@H](CO)NC(=O)CNC(=O)[C@H](CCC(=O)O)NC(=O)C(C)(C)NC(=O)[C@@H](N)Cc1c[nH]cn1)[C@@H](C)O)C(C)C)C(=O)N[C@@H](C)C(=O)N[C@@](C)(Cc1ccccc1)C(=O)N[C@H](C(=O)N[C@H](C(=O)N[C@@](C)(CCCCN)C(=O)NCC(=O)NCC(N)=O)C(C)C)C(C)C
B3: SEQ ID NO 15 (peptide)
peptide: Y[Aib]EGS[αMeF]ISD[αMeF]SIAMDKIHQQD[αMeF]VN[αMeF]LLAQK-NH2
modifications: N-terminus assumed
SMILES: CC[C@H](C)[C@H](NC(=O)[C@H](CO)NC(=O)[C@](C)(Cc1ccccc1)NC(=O)[C@H](CC(=O)O)NC(=O)[C@H](CO)NC(=O)[C@@H](NC(=O)[C@](C)(Cc1ccccc1)NC(=O)[C@H](CO)NC(=O)CNC(=O)[C@H](CCC(=O)O)NC(=O)C(C)(C)NC(=O)[C@@H](N)Cc1ccc(O)cc1)[C@@H](C)CC)C(=O)N[C@@H](C)C(=O)N[C@@H](CCSC)C(=O)N[C@@H](CC(=O)O)C(=O)N[C@@H](CCCCN)C(=O)N[C@H](C(=O)N[C@@H](Cc1c[nH]cn1)C(=O)N[C@@H](CCC(N)=O)C(=O)N[C@@H](CCC(N)=O)C(=O)N[C@@H](CC(=O)O)C(=O)N[C@@](C)(Cc1ccccc1)C(=O)N[C@H](C(=O)N[C@@H](CC(N)=O)C(=O)N[C@@](C)(Cc1ccccc1)C(=O)N[C@@H](CC(C)C)C(=O)N[C@@H](CC(C)C)C(=O)N[C@@H](C)C(=O)N[C@@H](CCC(N)=O)C(=O)N[C@@H](CCCCN)C(N)=O)C(C)C)[C@@H](C)CC
B4: SEQ ID NO 13 (peptide)
peptide: H[Aib]QGS[αMeF]TSDK([γGlu-Palmitoyl])SE[αMeF]LDSERARD[αMeF]VA[αMeF]LEAGG-NH2
modifications: N-terminus assumed
SMILES: CCCCCCCCCCCCCCCC(=O)N[C@@H](CCC(=O)NCCCC[C@H](NC(=O)[C@H](CC(=O)O)NC(=O)[C@H](CO)NC(=O)[C@@H](NC(=O)[C@](C)(Cc1ccccc1)NC(=O)[C@H](CO)NC(=O)CNC(=O)[C@H](CCC(N)=O)NC(=O)C(C)(C)NC(=O)[C@@H](N)Cc1c[nH]cn1)[C@@H](C)O)C(=O)N[C@@H](CO)C(=O)N[C@@H](CCC(=O)O)C(=O)N[C@@](C)(Cc1ccccc1)C(=O)N[C@@H](CC(C)C)C(=O)N[C@@H](CC(=O)O)C(=O)N[C@@H](CO)C(=O)N[C@@H](CCC(=O)O)C(=O)N[C@@H](CCCNC(=N)N)C(=O)N[C@@H](C)C(=O)N[C@@H](CCCNC(=N)N)C(=O)N[C@@H](CC(=O)O)C(=O)N[C@@](C)(Cc1ccccc1)C(=O)N[C@H](C(=O)N[C@@H](C)C(=O)N[C@@](C)(Cc1ccccc1)C(=O)N[C@@H](CC(C)C)C(=O)N[C@@H](CCC(=O)O)C(=O)N[C@@H](C)C(=O)NCC(=O)NCC(N)=O)C(C)C)C(=O)O
B5: SEQ ID NO 12 (peptide)
peptide: H[Aib]EGS[αMeF]SSEVSS[αMeF]VEGEAA[αMeK]E[αMeF]VA[αMeF]VV[αMeK]GG-NH2
modifications: N-terminus assumed
SMILES: CC(C)[C@H](NC(=O)[C@H](CCC(=O)O)NC(=O)[C@H](CO)NC(=O)[C@H](CO)NC(=O)[C@](C)(Cc1ccccc1)NC(=O)[C@H](CO)NC(=O)CNC(=O)[C@H](CCC(=O)O)NC(=O)C(C)(C)NC(=O)[C@@H](N)Cc1c[nH]cn1)C(=O)N[C@@H](CO)C(=O)N[C@@H](CO)C(=O)N[C@@](C)(Cc1ccccc1)C(=O)N[C@H](C(=O)N[C@@H](CCC(=O)O)C(=O)NCC(=O)N[C@@H](CCC(=O)O)C(=O)N[C@@H](C)C(=O)N[C@@H](C)C(=O)N[C@@](C)(CCCCN)C(=O)N[C@@H](CCC(=O)O)C(=O)N[C@@](C)(Cc1ccccc1)C(=O)N[C@H](C(=O)N[C@@H](C)C(=O)N[C@@](C)(Cc1ccccc1)C(=O)N[C@H](C(=O)N[C@H](C(=O)N[C@@](C)(CCCCN)C(=O)NCC(=O)NCC(N)=O)C(C)C)C(C)C)C(C)C)C(C)C

Assays:
Assay in all cases: cell-based or functional assay
[1] = target: T1, glucose-dependent insulinotropic peptide (gastric inhibitory polypeptide) receptor (human, UniProt P48546 22-466)
T1 sequence (looked up): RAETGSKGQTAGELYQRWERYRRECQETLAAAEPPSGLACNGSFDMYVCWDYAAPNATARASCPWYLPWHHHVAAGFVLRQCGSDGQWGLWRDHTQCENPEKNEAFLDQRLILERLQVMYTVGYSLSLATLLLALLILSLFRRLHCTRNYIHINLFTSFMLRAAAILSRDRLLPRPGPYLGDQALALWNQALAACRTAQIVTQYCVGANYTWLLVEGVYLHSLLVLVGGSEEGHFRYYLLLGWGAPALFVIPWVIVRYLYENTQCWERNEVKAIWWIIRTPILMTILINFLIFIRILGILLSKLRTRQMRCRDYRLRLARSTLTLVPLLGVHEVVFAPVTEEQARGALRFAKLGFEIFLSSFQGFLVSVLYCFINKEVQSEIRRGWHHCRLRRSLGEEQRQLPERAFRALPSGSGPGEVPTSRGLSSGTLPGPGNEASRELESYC

GLP-1 receptor = GLP-1 receptor (human, UniProt P43220 24-463)
glucagon receptor = glucagon receptor (human, UniProt P47871 26-477)
glucagon receptor, sequence (P47871 26-477): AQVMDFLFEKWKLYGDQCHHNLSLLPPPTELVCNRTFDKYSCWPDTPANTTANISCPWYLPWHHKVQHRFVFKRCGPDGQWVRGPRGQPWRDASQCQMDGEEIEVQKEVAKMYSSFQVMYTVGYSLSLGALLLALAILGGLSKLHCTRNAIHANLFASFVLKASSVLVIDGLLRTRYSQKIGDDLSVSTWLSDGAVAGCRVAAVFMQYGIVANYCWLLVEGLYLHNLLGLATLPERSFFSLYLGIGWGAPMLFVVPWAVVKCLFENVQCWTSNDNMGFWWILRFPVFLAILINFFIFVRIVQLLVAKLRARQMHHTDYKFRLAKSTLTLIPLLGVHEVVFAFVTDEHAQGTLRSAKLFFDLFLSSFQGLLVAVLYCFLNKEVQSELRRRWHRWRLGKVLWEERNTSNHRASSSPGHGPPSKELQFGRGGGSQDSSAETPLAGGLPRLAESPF

[2] = target: T2, glucose-dependent insulinotropic peptide (gastric inhibitory polypeptide) receptor (GIPR), primary cAMP assay … (human, UniProt P48546 22-466)
T2 sequence (looked up): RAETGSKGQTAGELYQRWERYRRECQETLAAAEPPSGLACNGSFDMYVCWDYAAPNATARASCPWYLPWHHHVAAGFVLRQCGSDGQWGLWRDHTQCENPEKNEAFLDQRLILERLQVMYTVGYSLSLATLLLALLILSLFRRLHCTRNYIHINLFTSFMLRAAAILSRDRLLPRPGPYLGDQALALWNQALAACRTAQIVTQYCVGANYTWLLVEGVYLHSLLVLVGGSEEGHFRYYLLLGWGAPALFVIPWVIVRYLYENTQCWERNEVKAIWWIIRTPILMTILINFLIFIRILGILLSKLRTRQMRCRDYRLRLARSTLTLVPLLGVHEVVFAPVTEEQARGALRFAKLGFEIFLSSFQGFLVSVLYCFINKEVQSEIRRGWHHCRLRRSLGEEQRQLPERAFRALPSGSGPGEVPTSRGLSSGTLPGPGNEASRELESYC

[3] = target: GLP-1 receptor (GLP-1R), primary cAMP assay cell line (human, UniProt P43220 24-463)
[4] = target: glucagon receptor (GCGR), primary cAMP assay cell line (human, UniProt P47871 26-477)
glucagon receptor (GCGR), primary cAMP assay cell line, sequence (P47871 26-477): as the sequence (P47871 26-477) above

| Binder | Primary assay EC50 (cAMP), n1 [1] [nM] | Primary assay EC50 (cAMP), n2 [1] [nM] | Primary assay EC50 (cAMP), Mean pM GLP-1R (GLP-1 receptor) [pM] | Primary assay EC50 (cAMP), n1 (GLP-1 receptor) [nM] | Primary assay EC50 (cAMP), n2 (GLP-1 receptor) [nM] | Primary assay EC50 (cAMP), n1 (glucagon receptor) [nM] | Primary assay EC50 (cAMP), n2 (glucagon receptor) [nM] | cAMP Primary assay EC50, n1 [2] [nM] | cAMP Primary assay EC50, n2 [2] [nM] | cAMP Primary assay EC50, Mean pM GLP-1R [3] [pM] | cAMP Primary assay EC50, n1 [3] [nM] | cAMP Primary assay EC50, n2 [3] [nM] | cAMP Primary assay EC50, n1 [4] [nM] | cAMP Primary assay EC50, n2 [4] [nM] |
| --- | --- | --- | --- | --- | --- | --- | --- | --- | --- | --- | --- | --- | --- | --- |
| B1 | 15 | 19 | 2440 | 3.1 | 1.8 | 3 | 1.1 | – | – | – | – | – | – | – |
| H[Aib]EGS[αMeF]TSDK([PEG2′-PEG2′-γGlu-Lauroyl])SSYLEGEK([PEG2′-PEG2′-γGlu-Lauroyl])A[αMeK]EFIK([PEG2′-PEG2′-γGlu-Lauroyl])FVVEGG-NH2 [SEQ ID NO: 441] | – | – | – | – | – | – | – | 19.5 | 19.5 | 176 | 0.11 | 0.241 | 19.5 | 19.5 |
| B2 | 100 | 100 | 10100 | 11 | 9.4 | 100 | 100 | – | – | – | – | – | – | – |
| H[Aib]EGS[αMeF]TSDK([PEG2′-PEG2′-γGlu-Lauroyl])SSYLEK([PEG2′-PEG2′-γGlu-Lauroyl])EAA[αMeK]EFIK([PEG2′-PEG2′-γGlu-Lauroyl])FVVEGG-NH2 [SEQ ID NO: 439] | – | – | – | – | – | – | – | 19.5 | 19.5 | 97 | 0.0599 | 0.134 | 19.5 | 19.5 |
| H[Aib]EGS[αMeF]TSDK([PEG2′-PEG2′-γGlu-Lauroyl])SSYLEGEAA[αMeK]K([PEG2′-PEG2′-γGlu-Lauroyl])FIK([PEG2′-PEG2′-γGlu-Lauroyl])FVVEGG-NH2 [SEQ ID NO: 442] | – | – | – | – | – | – | – | 19.7 | 19.7 | 82 | 0.0609 | 0.103 | 19.7 | 19.7 |
| B3 | 0.16 | 0.079 | 119000 | 120 | 120 | 120 | 120 | – | – | – | – | – | – | – |
| B4 | 0.69 | 0.63 | 16 | 0.022 | 0.0096 | 7.6 | 4.1 | – | – | – | – | – | – | – |
| B5 | 45 | 45 | 2100 | 2.1 | 2.1 | 10 | 13 | – | – | – | – | – | – | – |
| H[Aib]EGS[αMeF]TSDK([PEG2′-PEG2′-γGlu-Lauroyl])SSYLEGK([PEG2′-PEG2′-γGlu-Lauroyl])AA[αMeK]EFIK([PEG2′-PEG2′-γGlu-Lauroyl])FVVEGG-NH2 [SEQ ID NO: 440] | – | – | – | – | – | – | – | 19.7 | 19.7 | 130 | 0.0967 | 0.164 | 19.7 | 19.7 |
